The source of these data is US20260242419A1, “A CYCLIC PEPTIDE FOR TRAPPING INTERLEUKIN-1 BETA” (Merck Sharp & Dohme LLC, priority 2023, published 2026).

Starred links: 1 amine or outer side, 2 acyl side, 3 side chain; linkers in the order of their positions; H or OH if unused. Non-standard residues stand in square brackets, D forms with d. Primed or numbered codes have the meaning given here. dProc4Bn4Br = (2R,4R)-4-[(4-bromophenyl)methyl]pyrrolidine-2-carboxylic acid, O=C([C@H]1C[C@@H](Cc2ccc(Br)cc2)CN1[*:1])[*:2]; Trp(4-Cl)(βS-Me) = C[C@@H](c1c[nH]c2cccc(Cl)c12)[C@H](N)C(=O)O; Trp(βS-Me,4-F) = C[C@@H](c1c[nH]c2cccc(F)c12)[C@H](N)C(=O)O; Bip(4'-COOH) = N[C@@H](Cc1ccc(-c2ccc(C(=O)O)cc2)cc1)C(=O)O; Ala(1-bicyclo(1.1.1)pentyl) = N[C@@H](CC12CC(C1)C2)C(=O)O; dPro(4R-Bzl(4-F)) = O=C(O)[C@H]1C[C@@H](Cc2ccc(F)cc2)CN1; 1Nal(3S-Me) = C[C@@H](c1cccc2ccccc12)[C@H](N)C(=O)O; Ala(pyrimidin-5-yl) = N[C@@H](Cc1cncnc1)C(=O)O; Phe(4-COOH) = N[C@@H](Cc1ccc(C(=O)O)cc1)C(=O)O; dαMeDab = C[C@](CCN[*:3])(N[*:1])C(=O)[*:2]; Pro(cis-4-F) = O=C(O)[C@@H]1C[C@H](F)CN1; Ala(4-THP) = N[C@@H](CC1CCOCC1)C(=O)O; aIle = CC[C@@H](C)[C@H](N)C(=O)O; d(αMeK) = C[C@@](N)(CCCCN)C(=O)O; 4Pal = N[C@@H](Cc1ccncc1)C(=O)O; aThr = C[C@H](O)[C@H](N)C(=O)O; αMeD = C[C@](N)(CC(=O)O)C(=O)O; αMeK = C[C@](N)(CCCCN)C(=O)O; dαMeDab′ = not defined here; hSer = N[C@@H](CCO)C(=O)O; Dab = NCC[C@H](N)C(=O)O; Aib = CC(C)(N)C(=O)O; Sar = CNCC(=O)O

In this experiment the target is Recombinant human IL-1β (BioLegend 579404) (human, UniProt P01584 117-269). Nature of the experiment: cell-based or functional assay.

B1: SEQ ID NO: 131 (peptide)
peptide: cyclo([Bip(4'-COOH)][4Pal][Phe(4-COOH)]G[Pro(cis-4-F)][Trp(βS-Me,4-F)][dαMeDab′]SW[Aib][Ala(pyrimidin-5-yl)]Q[Dab]G[dPro(4R-Bzl(4-F))])
modifications: ring closure inferred; not fully specified (bridges); printed as Bip4CO2H-4Pal-Phe4COOH-G-Proc4F-SbMeW4F-daMeDab-S-W-Aib-PyrimAla-Q-Dab-G-dProc4Bn4F
Take B1: the “MRC5 IC50” value stood at 0.019 nM.

B2: SEQ ID NO: 144 (peptide)
peptide: cyclo([Bip(4'-COOH)][Ala(1-bicyclo(1.1.1)pentyl)][Phe(4-COOH)]G[Pro(cis-4-F)][Trp(βS-Me,4-F)][Aib]SW[αMeK][Ala(pyrimidin-5-yl)]Q[Dab]G[dPro(4R-Bzl(4-F))])
modifications: ring closure inferred; not fully specified (bridges); printed as Bip4CO2H-AlaPent-Phe4COOH-G-Proc4F-SbMeW4F-Aib-S-W-aMeK-PyrimAla-Q-Dab-G-dProc4Bn4F, cyclic (macrolactam)
For B2, the “MRC5 IC50” value was found to be 0.031 nM.

B3: SEQ ID NO: 136 (peptide)
peptide: cyclo([Bip(4'-COOH)][4Pal][Phe(4-COOH)]G[Pro(cis-4-F)][Trp(βS-Me,4-F)][Aib][aIle]W[αMeK][Ala(pyrimidin-5-yl)]Q[Dab]G[dPro(4R-Bzl(4-F))])
modifications: ring closure inferred; not fully specified (bridges); printed as Bip4CO2H-4Pal-Phe4COOH-G-Proc4F-SbMeW4F-Aib-alI-W-aMeK-PyrimAla-Q-Dab-G-dProc4Bn4F
In the case of B3, the “MRC5 IC50” value was 0.027 nM.

B4: SEQ ID NO: 132 (peptide)
peptide: cyclo([Bip(4'-COOH)][4Pal][Phe(4-COOH)]G[Pro(cis-4-F)][Trp(βS-Me,4-F)][Aib]EW[αMeK][Ala(pyrimidin-5-yl)]Q[Dab][Sar][dPro(4R-Bzl(4-F))])
modifications: ring closure inferred; not fully specified (bridges); printed as Bip4CO2H-4Pal-Phe4COOH-G-Proc4F-SbMeW4F-Aib-E-W-aMeK-PyrimAla-Q-Dab-Sar-dProc4Bn4F
Regarding B4, the “MRC5 IC50” value was determined as 0.015 nM.

B5: SEQ ID NO: 142 (peptide)
peptide: cyclo([Bip(4'-COOH)][4Pal][Phe(4-COOH)]G[Pro(cis-4-F)][Trp(βS-Me,4-F)][Aib]SW[dαMeDab][Ala(pyrimidin-5-yl)]Q[Dab]G[dPro(4R-Bzl(4-F))])
modifications: ring closure inferred; not fully specified (bridges); printed as Bip4CO2H-4Pal-Phe4COOH-G-Proc4F-SbMeW4F-Aib-S-W-daMeDab-PyrimAla-Q-Dab-G-dProc4Bn4F
Take B5: the “MRC5 IC50” value stood at 0.019 nM.

B6: SEQ ID NO: 130 (peptide)
peptide: cyclo([Bip(4'-COOH)][4Pal][Phe(4-COOH)]G[Pro(cis-4-F)][Trp(βS-Me,4-F)][Aib]SW[αMeDab][Ala(pyrimidin-5-yl)]Q[Dab]G[dPro(4R-Bzl(4-F))])
modifications: ring closure inferred; not fully specified (bridges); printed as Bip4CO2H-4Pal-Phe4COOH-G-Proc4F-SbMeW4F-Aib-S-W-aMeDab-PyrimAla-Q-Dab-G-dProc4Bn4F
Turning to B6, the “MRC5 IC50” value is 0.039 nM.

B7: SEQ ID NO: 146 (peptide)
peptide: cyclo([Bip(4'-COOH)][Ala(1-bicyclo(1.1.1)pentyl)][Phe(4-COOH)]G[Pro(cis-4-F)][Trp(βS-Me,4-F)][Aib]SW[αMeK][Ala(4-THP)]Q[Dab]G[dPro(4R-Bzl(4-F))])
modifications: ring closure inferred; not fully specified (bridges); printed as Bip4CO2H-AlaPent-Phe4COOH-G-Proc4F-SbMeW4F-Aib-S-W-aMeK-AlaTHP4-Q-Dab-G-dProc4Bn4F, cyclic (macrolactam)
As to B7, the “MRC5 IC50” value came out at 0.034 nM.

B8: SEQ ID NO: 147 (peptide)
peptide: cyclo([Bip(4'-COOH)][Ala(1-bicyclo(1.1.1)pentyl)][Phe(4-COOH)]G[Pro(cis-4-F)][Trp(βS-Me,4-F)][Aib][hSer]W[αMeK][Ala(pyrimidin-5-yl)]Q[Dab]G[dPro(4R-Bzl(4-F))])
modifications: ring closure inferred; not fully specified (bridges); printed as Bip4CO2H-AlaPent-Phe4COOH-G-Proc4F-SbMeW4F-Aib-hS-W-aMeK-PyrimAla-Q-Dab-G-dProc4Bn4F, cyclic (macrolactam)
As to B8, the “MRC5 IC50” value amounted to 0.045 nM.

B9: SEQ ID NO: 140 (peptide)
peptide: cyclo([Bip(4'-COOH)][4Pal][Phe(4-COOH)]G[Pro(cis-4-F)][1Nal(3S-Me)][Aib]SW[Aib][Ala(pyrimidin-5-yl)]Q[Dab]G[dPro(4R-Bzl(4-F))])
modifications: ring closure inferred; not fully specified (bridges); printed as Bip4CO2H-4Pal-Phe4COOH-G-Proc4F-SbMe1Nal-Aib-S-W-Aib-PyrimAla-Q-Dab-G-dProc4Bn4F
In the case of B9, the “MRC5 IC50” value stood at 0.033 nM.

B10: SEQ ID NO: 145 (peptide)
peptide: cyclo([Bip(4'-COOH)][Ala(1-bicyclo(1.1.1)pentyl)][Phe(4-COOH)]G[Pro(cis-4-F)][Trp(βS-Me,4-F)][Aib]SW[d(αMeK)][Ala(pyrimidin-5-yl)]Q[Dab]G[dPro(4R-Bzl(4-F))])
modifications: ring closure inferred; not fully specified (bridges); printed as Bip4CO2H-AlaPent-Phe4COOH-G-Proc4F-SbMeW4F-Aib-S-W-daMeK-PyrimAla-Q-Dab-G-dProc4Bn4F, cyclic (macrolactam)
On to B10, for which the “MRC5 IC50” value is 0.041 nM.

B11: SEQ ID NO: 137 (peptide)
peptide: cyclo([Bip(4'-COOH)][4Pal][Phe(4-COOH)]G[Pro(cis-4-F)][Trp(βS-Me,4-F)][Aib]TW[αMeK][Ala(pyrimidin-5-yl)]Q[Dab]G[dPro(4R-Bzl(4-F))])
modifications: ring closure inferred; not fully specified (bridges); printed as Bip4CO2H-4Pal-Phe4COOH-G-Proc4F-SbMeW4F-Aib-T-W-aMeK-PyrimAla-Q-Dab-G-dProc4Bn4F
As for B11, the “MRC5 IC50” value was found to be 0.022 nM.

B12: SEQ ID NO: 134 (peptide)
peptide: cyclo([Bip(4'-COOH)][4Pal][Phe(4-COOH)]G[Pro(cis-4-F)][Trp(βS-Me,4-F)][Aib]AW[αMeK][Ala(pyrimidin-5-yl)]Q[Dab]G[dPro(4R-Bzl(4-F))])
modifications: ring closure inferred; not fully specified (bridges); printed as Bip4CO2H-4Pal-Phe4COOH-G-Proc4F-SbMeW4F-Aib-A-W-aMeK-PyrimAla-Q-Dab-G-dProc4Bn4F
Regarding B12, the “MRC5 IC50” value was found to be 0.021 nM.

B13: SEQ ID NO: 143 (peptide)
peptide: cyclo([Bip(4'-COOH)][4Pal][Phe(4-COOH)]G[Pro(cis-4-F)][Trp(βS-Me,4-F)][Aib]EW[Aib][Ala(pyrimidin-5-yl)]Q[Dab]G[dProc4Bn4Br])
modifications: ring closure inferred; not fully specified (bridges); printed as Bip4CO2H-4Pal-Phe4COOH-G-Proc4F-sbMeW4F-Aib-E-W-Aib-PyrimAla-Q-Dab-G-dProc4Bn4Br, cyclic (macrolactam)
In the case of B13, the “MRC5 IC50” value is 0.026 nM.

B14: SEQ ID NO: 133 (peptide)
peptide: cyclo([Bip(4'-COOH)][4Pal][Phe(4-COOH)]G[Pro(cis-4-F)][Trp(βS-Me,4-F)][Aib][hSer]W[αMeK][Ala(pyrimidin-5-yl)]Q[Dab]G[dPro(4R-Bzl(4-F))])
modifications: ring closure inferred; not fully specified (bridges); printed as Bip4CO2H-4Pal-Phe4COOH-G-Proc4F-SbMeW4F-Aib-hS-W-aMeK-PyrimAla-Q-Dab-G-dProc4Bn4F
Consider B14, for which the “MRC5 IC50” value is 0.021 nM.

B15: SEQ ID NO: 139 (peptide)
peptide: cyclo([Bip(4'-COOH)][4Pal][Phe(4-COOH)]G[Pro(cis-4-F)][Trp(4-Cl)(βS-Me)][Aib]SW[Aib][Ala(pyrimidin-5-yl)]Q[Dab]G[dPro(4R-Bzl(4-F))])
modifications: ring closure inferred; not fully specified (bridges); printed as Bip4CO2H-4Pal-Phe4COOH-G-Proc4F-SbMeW4Cl-Aib-S-W-Aib-PyrimAla-Q-Dab-G-dProc4Bn4F
Take B15: the “MRC5 IC50” value worked out at 0.034 nM.

B16: SEQ ID NO: 141 (peptide)
peptide: cyclo([Bip(4'-COOH)][4Pal][Phe(4-COOH)]G[Pro(cis-4-F)][Trp(βS-Me,4-F)][Aib]SW[αMeD][Ala(pyrimidin-5-yl)]Q[Dab]G[dPro(4R-Bzl(4-F))])
modifications: ring closure inferred; not fully specified (bridges); printed as Bip4CO2H-4Pal-Phe4COOH-G-Proc4F-SbMeW4F-Aib-S-W-aMeD-PyrimAla-Q-Dab-G-dProc4Bn4F
For the molecule B16, the “MRC5 IC50” value stood at 0.011 nM.

B17: SEQ ID NO: 138 (peptide)
peptide: cyclo([Bip(4'-COOH)][4Pal][Phe(4-COOH)]G[Pro(cis-4-F)][Trp(βS-Me,4-F)][Aib][aThr]W[αMeK][Ala(pyrimidin-5-yl)]Q[Dab]G[dPro(4R-Bzl(4-F))])
modifications: ring closure inferred; not fully specified (bridges); printed as Bip4CO2H-4Pal-Phe4COOH-G-Proc4F-SbMeW4F-Aib-alT-W-aMeK-PyrimAla-Q-Dab-G-dProc4Bn4F
In the case of B17, the “MRC5 IC50” value stood at 0.021 nM.

B18: SEQ ID NO: 135 (peptide)
peptide: cyclo([Bip(4'-COOH)][4Pal][Phe(4-COOH)]G[Pro(cis-4-F)][Trp(βS-Me,4-F)][Aib]VW[αMeK][Ala(pyrimidin-5-yl)]Q[Dab]G[dPro(4R-Bzl(4-F))])
modifications: ring closure inferred; not fully specified (bridges); printed as Bip4CO2H-4Pal-Phe4COOH-G-Proc4F-SbMeW4F-Aib-V-W-aMeK-PyrimAla-Q-Dab-G-dProc4Bn4F
Take B18: the “MRC5 IC50” value stood at 0.035 nM.
